Laboratory results as given in patent US20230000998A1 (OSSIANIX, published 2023).
Blank lines part the entries; values can stand above or below the binder they belong to.

Assays:
[1] = molecular target: human TrkB receptor (overexpressed on TrkB-NFAT-bla CHO-K1 reporter cells) (human, UniProt Q16620 32-822); experiment: cell-based or functional assay
human serum albumin = molecular target: T1, human serum albumin (human, UniProt P02768 25-609); experiment: kinetic ELISA on coated HSA (negative control); ND: not detected
T1 construct: also called HSA; HAS
Procedure: (§1) The TrkB fusion constructs were assessed for binding to recombinant human, mouse, rat and cynomolgus TfR1. […] When these conjugates were compared to a control VNAR-Fc (open circles), no loss of affinity for TrkB(HC2N) (squares) was observed and only minimal loss for TrkB(HV2N) (triangles).
(§2) TfR-1-binding ELISA. Nunc MaxiSorp plates (Thermo Fisher) were coated with 100 μl of 1 μg/ml of purified, recombinant mouse, human, rat or cynomolgus TfR-1, or with human serum albumin (HAS; Sigma) and incubated at 4° C. overnight. Plates were incubated with blocking buffer (2.5% non-fat dry milk in PBS with 0.1% Tween20; “PBST”) for 1 hat room temperature. Antibody or conjugate solutions were incubated in PBST for 30 min. The blocked solutions (100 μl) were transferred to the blocked plates and incubated for 1 h before washing with PBST. After washing, the plates were incubated for 30 min with a goat anti-human Fc-peroxidase antibody diluted 1:5000 (Sigma) in PBST. The plates were washed and developed with SureBlue™ TMB substrate (VWR). The development of the reaction was measured at 370 nm in real time providing data for Vmax analysis. EC50 values were calculated using 4-parametric non-linear regression (Prism).

[2] = molecular target: T2, human TfR-1 (transferrin receptor 1), purified recombinant (human, UniProt P02786 89-760, limits assumed); experiment: kinetic ELISA on coated recombinant TfR-1, anti-human Fc-HRP detection, Vmax at 370 nm
T2 construct: Coated on ELISA plates at 1 ug/ml; also called hTfR1
Procedure: as §1, §2

[3] = molecular target: T3, mouse TfR-1 (transferrin receptor 1), purified recombinant (mouse, UniProt Q62351 89-763, limits assumed); experiment: as above
T3 construct: also called mTfR1
Procedure: as §1, §2

[4] = molecular target: T4, rat TfR-1 (transferrin receptor 1), purified recombinant (rat, UniProt Q99376 89-761, limits assumed); experiment: as above
T4 construct: also called rTfR1
Procedure: as §1, §2

[5] = molecular target: T5, cynomolgus TfR-1 (transferrin receptor 1), purified recombinant (cynomolgus, UniProt H9EXL1 89-760 (rhesus entry)); experiment: as above
T5 construct: also called cTfR1
Procedure: as §1, §2

[6] = molecular target: T2, human TfR-1 (transferrin receptor 1), …; experiment: kinetic ELISA on coated recombinant TfR-1 (Vmax at 370 nm); ND: not detected
Procedure: as §1, §2

[7] = molecular target: T3, mouse TfR-1 (transferrin receptor 1), …; experiment: as above
Procedure: as §1, §2

[8] = molecular target: T4, rat TfR-1 (transferrin receptor 1), …; experiment: as above
Procedure: as §1, §2

[9] = molecular target: T5, cynomolgus TfR-1 (transferrin receptor …); experiment: as above
Procedure: as §1, §2

T4 sequence (Q99376 89-761 limits assumed): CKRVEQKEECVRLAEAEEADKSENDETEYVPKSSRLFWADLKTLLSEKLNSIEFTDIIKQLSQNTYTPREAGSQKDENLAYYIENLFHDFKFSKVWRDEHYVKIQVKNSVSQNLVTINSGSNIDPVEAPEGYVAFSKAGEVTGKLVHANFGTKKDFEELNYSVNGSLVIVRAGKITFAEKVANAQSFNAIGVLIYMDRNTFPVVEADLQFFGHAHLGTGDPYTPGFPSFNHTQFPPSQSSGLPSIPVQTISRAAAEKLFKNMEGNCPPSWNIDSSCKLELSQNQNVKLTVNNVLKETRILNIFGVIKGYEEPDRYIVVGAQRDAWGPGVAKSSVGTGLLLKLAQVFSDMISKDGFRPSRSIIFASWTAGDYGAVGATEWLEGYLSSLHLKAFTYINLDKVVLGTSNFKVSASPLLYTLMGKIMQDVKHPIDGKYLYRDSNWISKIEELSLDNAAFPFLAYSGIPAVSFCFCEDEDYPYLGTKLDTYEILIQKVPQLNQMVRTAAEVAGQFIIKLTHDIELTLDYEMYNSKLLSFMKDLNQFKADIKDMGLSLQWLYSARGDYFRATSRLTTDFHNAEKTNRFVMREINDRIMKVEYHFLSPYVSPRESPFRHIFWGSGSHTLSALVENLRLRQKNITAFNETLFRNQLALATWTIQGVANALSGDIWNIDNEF
T3 sequence (Q62351 89-763 limits assumed): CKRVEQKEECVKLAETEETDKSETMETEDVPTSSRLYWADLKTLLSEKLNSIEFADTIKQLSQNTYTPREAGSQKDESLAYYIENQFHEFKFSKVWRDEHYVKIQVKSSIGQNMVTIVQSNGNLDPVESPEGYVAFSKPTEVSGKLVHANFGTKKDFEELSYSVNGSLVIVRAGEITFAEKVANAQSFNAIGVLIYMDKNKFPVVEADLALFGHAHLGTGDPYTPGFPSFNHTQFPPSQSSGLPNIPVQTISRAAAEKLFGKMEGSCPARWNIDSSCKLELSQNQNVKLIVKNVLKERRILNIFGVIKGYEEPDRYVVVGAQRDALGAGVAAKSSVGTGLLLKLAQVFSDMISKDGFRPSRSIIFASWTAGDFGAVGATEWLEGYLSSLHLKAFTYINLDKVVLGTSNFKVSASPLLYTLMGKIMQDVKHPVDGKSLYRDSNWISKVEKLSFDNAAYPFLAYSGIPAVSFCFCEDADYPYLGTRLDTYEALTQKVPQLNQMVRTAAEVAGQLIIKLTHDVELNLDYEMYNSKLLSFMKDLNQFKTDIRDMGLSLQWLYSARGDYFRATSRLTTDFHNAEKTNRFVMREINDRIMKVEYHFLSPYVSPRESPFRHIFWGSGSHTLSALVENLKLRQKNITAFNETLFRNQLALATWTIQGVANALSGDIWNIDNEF
T2 sequence (P02786 89-760 limits assumed): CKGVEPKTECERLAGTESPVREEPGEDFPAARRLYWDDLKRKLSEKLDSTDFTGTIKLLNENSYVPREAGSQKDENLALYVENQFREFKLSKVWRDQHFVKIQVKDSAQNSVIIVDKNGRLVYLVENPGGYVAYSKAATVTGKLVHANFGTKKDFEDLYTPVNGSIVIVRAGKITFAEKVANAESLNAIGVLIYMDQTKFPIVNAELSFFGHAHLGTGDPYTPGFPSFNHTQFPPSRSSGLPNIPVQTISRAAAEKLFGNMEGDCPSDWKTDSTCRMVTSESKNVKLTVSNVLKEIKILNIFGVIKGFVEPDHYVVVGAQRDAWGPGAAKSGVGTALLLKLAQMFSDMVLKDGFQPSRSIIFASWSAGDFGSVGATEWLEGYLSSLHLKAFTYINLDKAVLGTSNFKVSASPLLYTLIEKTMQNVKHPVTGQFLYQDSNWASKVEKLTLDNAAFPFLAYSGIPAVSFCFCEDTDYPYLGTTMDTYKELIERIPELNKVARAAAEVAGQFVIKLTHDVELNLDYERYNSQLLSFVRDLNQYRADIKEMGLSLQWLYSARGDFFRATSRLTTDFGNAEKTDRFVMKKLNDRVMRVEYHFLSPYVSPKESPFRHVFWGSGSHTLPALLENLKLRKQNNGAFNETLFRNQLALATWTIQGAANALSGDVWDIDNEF
T5 sequence (chain, as listed by the source): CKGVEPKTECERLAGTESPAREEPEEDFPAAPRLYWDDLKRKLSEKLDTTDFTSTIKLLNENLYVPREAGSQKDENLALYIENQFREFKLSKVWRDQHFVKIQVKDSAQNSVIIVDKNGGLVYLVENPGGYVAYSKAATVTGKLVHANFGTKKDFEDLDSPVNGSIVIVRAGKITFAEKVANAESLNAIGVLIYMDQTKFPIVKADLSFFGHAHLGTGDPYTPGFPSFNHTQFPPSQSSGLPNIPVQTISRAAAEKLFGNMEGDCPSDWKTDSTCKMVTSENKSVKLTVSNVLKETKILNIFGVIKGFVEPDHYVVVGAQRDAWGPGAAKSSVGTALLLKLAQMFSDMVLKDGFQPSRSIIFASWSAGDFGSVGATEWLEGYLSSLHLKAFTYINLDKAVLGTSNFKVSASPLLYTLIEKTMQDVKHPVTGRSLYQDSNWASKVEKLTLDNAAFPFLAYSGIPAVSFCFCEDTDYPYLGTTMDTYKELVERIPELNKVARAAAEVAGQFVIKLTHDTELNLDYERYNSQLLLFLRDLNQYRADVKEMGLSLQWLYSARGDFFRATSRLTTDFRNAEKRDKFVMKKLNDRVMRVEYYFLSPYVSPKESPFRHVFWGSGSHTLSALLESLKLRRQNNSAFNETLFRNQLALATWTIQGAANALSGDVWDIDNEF
Chain of human TrkB receptor (overexpressed on TrkB-NFAT-bla CHO-K1 reporter cells) (Q16620 32-822): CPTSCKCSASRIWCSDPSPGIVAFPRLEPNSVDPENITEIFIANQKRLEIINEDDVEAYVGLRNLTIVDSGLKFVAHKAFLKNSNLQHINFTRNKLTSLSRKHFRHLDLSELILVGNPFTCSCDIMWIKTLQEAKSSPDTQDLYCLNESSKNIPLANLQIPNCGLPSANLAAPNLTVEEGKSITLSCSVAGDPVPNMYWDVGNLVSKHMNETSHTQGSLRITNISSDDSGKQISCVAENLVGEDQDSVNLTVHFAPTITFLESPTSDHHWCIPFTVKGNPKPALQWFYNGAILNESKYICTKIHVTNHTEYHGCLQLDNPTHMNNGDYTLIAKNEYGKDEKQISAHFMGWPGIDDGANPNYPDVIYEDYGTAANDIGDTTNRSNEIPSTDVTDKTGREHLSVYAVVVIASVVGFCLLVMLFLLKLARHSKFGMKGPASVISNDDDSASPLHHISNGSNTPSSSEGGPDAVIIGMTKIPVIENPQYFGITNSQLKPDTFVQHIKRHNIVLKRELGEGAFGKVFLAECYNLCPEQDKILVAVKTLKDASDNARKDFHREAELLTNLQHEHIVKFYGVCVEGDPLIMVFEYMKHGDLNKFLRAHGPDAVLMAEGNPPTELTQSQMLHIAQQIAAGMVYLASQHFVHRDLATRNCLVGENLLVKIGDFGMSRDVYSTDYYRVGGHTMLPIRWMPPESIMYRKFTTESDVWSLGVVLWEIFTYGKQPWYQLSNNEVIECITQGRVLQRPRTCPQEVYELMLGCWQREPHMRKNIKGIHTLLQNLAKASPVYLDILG
T1 sequence (P02768 25-609 limits assumed): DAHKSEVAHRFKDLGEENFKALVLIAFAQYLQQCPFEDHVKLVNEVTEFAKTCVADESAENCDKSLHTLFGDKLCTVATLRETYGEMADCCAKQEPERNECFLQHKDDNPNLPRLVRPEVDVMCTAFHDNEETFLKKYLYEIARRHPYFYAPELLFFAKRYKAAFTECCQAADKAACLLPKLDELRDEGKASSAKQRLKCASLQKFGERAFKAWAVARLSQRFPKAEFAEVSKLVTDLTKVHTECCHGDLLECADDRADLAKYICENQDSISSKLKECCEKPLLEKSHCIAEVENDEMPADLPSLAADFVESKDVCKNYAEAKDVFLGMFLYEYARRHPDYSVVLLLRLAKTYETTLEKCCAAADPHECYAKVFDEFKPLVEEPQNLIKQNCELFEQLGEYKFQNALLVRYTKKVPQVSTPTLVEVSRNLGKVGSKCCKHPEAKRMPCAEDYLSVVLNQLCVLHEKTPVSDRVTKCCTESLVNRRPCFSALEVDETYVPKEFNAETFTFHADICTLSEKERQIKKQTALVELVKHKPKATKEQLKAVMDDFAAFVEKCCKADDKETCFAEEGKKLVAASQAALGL

agonist activity relative to TrkB(HV2N) (TrkB-NFAT-bla CHO-K1 cells) [1]: ~7 fold less than TrkB(HV2N)
maximal reporter response as percentage of the BDNF response (TrkB-NFAT-bla CHO-K1 cells) [1]: ~50%
binding result (human serum albumin): no binding
EC50 [2]: 0.74 nM
EC50 [3]: 0.63 nM
EC50 [4]: 4.03 nM
EC50 [5]: 0.79 nM
B1: TrkB(HC2N) conjugate (TXB4 VNAR fused to the N-terminus of the TrkB antibody heavy chain via a 3xG4S linker) (bispecific antibody, human IgG1, kappa, L234A L235A)
light: AIVLIQSPATLSVTPGDSVSLSCRASQTISNNLHWYQQKSHESPRLLIKSASLAISGIPSRFSGSGSGTDFTLSISSVETEDFGMYFCQQSNSWPNTFGGGTKLEIKRTVAAPSVFIFPPSDEQLKSGTASVVCLLNNFYPREAKVQWKVDNALQSGNSQESVTEQDSKDSTYSLSSTLTLSKADYEKHKVYACEVTHQGLSSPVTKSFNRGEC
heavy: not shown
notes: Copies of 2 are inferred from the IgG1 format; also called TXB4-TrkB-AAb conjugate

maximal reporter response as percentage of the BDNF response (TrkB-NFAT-bla CHO-K1 cells) [1]: ~50%
binding result (human serum albumin): no binding
EC50 [2]: 5.3 nM
EC50 [3]: 5.07 nM
EC50 [4]: 61 nM
EC50 [5]: 2.04 nM
B2: TrkB(HV2N) conjugate (TXB4 VNAR inserted between the CH1 and Fc domains of the TrkB antibody heavy chain) (bispecific antibody, IgG1)
light: B1 light
heavy: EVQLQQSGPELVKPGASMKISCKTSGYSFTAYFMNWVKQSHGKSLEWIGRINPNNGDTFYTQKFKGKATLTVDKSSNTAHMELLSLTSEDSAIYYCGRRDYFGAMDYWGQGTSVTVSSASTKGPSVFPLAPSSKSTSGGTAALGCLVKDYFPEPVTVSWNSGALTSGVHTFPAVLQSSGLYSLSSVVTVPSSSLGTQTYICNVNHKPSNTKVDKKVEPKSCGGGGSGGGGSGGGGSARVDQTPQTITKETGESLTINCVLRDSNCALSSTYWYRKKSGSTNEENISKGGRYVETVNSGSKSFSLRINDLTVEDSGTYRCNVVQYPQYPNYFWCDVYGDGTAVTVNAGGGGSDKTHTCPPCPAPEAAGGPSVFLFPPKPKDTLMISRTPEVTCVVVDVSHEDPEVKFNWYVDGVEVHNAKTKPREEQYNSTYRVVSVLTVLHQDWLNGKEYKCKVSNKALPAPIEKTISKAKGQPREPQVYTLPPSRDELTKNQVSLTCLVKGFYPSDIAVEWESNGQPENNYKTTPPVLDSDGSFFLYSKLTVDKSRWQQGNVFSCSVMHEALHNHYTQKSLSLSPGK
notes: Copies of 2 are inferred from the IgG1 format; also called TrkB1-TXB4; TXB4-TrkB-AAb conjugate

binding result (human serum albumin): no binding
EC50 [2]: 0.78 nM
EC50 [3]: 0.54 nM
EC50 [4]: 1.37 nM
EC50 [5]: 1 nM
B3: VNAR-Fc control conjugate (TXB4 fused to the N-terminal end of the Fc domain) (Fc fusion)
chain: ARVDQTPQTITKETGESLTINCVLRDSNCALSSTYWYRKKSGSTNEENISKGGRYVETVNSGSKSFSLRINDLTVEDSGTYRCNVVQYPQYPNYFWCDVYGDGTAVTVNA
notes: also called control VNAR-Fc fusion; not shown: Fc domain

maximal reporter response as percentage of the BDNF response (TrkB-NFAT-bla CHO-K1 cells) [1]: ~50%
binding result (human serum albumin): no binding
binding result [6]: no binding
binding result [7]: no binding
binding result [8]: no binding
binding result [9]: no binding
B4: unconjugated TrkB-AAb (mouse-human chimeric 29D7 TrkB agonist antibody, human IgG1 LALA / human kappa) (antibody, V domains shown)
VH: EVQLQQSGPELVKPGASMKISCKTSGYSFTAYFMNWVKQSHGKSLEWIGRINPNNGDTFYTQKFKGKATLTVDKSSNTAHMELLSLTSEDSAIYYCGRRDYFGAMDYWGQGTSVTVSS
VL: AIVLIQSPATLSVTPGDSVSLSCRASQTISNNLHWYQQKSHESPRLLIKSASLAISGIPSRFSGSGSGTDFTLSISSVETEDFGMYFCQQSNSWPNTFGGGTKLEIKR
notes: VH and VL of mouse 29D7 fused to human IgG1 and human kappa constant regions; Copies of 2 are inferred from the IgG1 format; also called unconjugated TrkB antibody; TrkB 29D7
